System: MS2 coat protein
Assay: apparent KD of MS2 coat protein; designed switch direction (-1 OFF switch, 1 ON switch): -1; higher = weaker reporter binding
Summary of the method: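 The buffer was Tris-HCl pH 7.5 with KCl, MgCl2, BSA, DTT, tRNA and Tween-20. In it, SNAP-549-labelled MS2 coat protein was titrated in doubling steps from 0.7 or 1.5 nM to 3 µM over chip-bound RNA switches transcribed by stalled E. coli RNA polymerase on Illumina chips. Apparent KD is the per-design median over clusters of curve fits to normalised fluorescence.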

[1] = input ligand: microRNA oligo, concentration not stated
[2] = Eterna round: R95, input ligand: FMN 200 uM
[3] = Eterna round: R95, input ligand: microRNA oligo, concentration not stated
[4] = Eterna round: R95, input ligand: none

Sequence	apparent KD of MS2 coat protein (input ligand: FMN 200 uM) [nM]	apparent KD of MS2 coat protein [1] [nM]	apparent KD of MS2 coat protein (input ligand: none) [nM]	apparent KD of MS2 coat protein [2] [nM]	apparent KD of MS2 coat protein [3] [nM]	apparent KD of MS2 coat protein [4] [nM]
UAUCAUCAUGUAGGAUAUGCGUGGCAAAGCUAUGCAGAAGGACAUGAGGAUCACCCAUGUUCUAGCGUCUGAGUACAGAUGCUA [Mat - Exclusion NG 1 - Mod of JL - D75] (Eterna round: R96, puzzle: Exclusion NG 1)	278	66.4	83.7			
CGACCCAUCAUAGGAUAUCACAGCACGGGAGAAAGUCUGAGGCGUCAACAUGAGGAUCACCCAUGUGAGAAGGAUGGUGGGCAG [Eternabot solution 17] (Eterna round: R96, puzzle: Exclusion NG 2)	120	184	162			
CUCUAGAAAGGAUAUACAUGAGGAUCACCCAUGUCCACGCCAUAACCGAGUGCCAUCUGUAGAAGGUUCAGAGU [Eternabot (L1) Solution 96] (Eterna round: R97, puzzle: Exclusion 3)	52.5		29.2			
CUCCGGCGUGUAGGAUAUGGUUCCGUUUAGGUUCCAGAAGGACAUGAGGAUCACCCAUGUACAUGUCGUCGGUCGUCACCGGGC [salish99_ExNG1_r04_213] (Eterna round: R96, puzzle: Exclusion NG 1)	87.3	28.8	33.1			
CAUGAUCUUCGGAUCAUGUACAUGAGGAUCACCCAUGUGACGAGUUGAUCCUCAUACAAGCUUUUUGCUCGUCUUAU [Sensor v3 - Turn-off variant 1 - 15] (puzzle: Sensor v3, turn-off variant 1)				26.8	16.7	24.4
CAUGAUUGGGAAGGAUAUUGACCUAGUUAGCGCCGAGAAGGUCCCUUUCACAUGAGGAUCACCCAUGUGAGUCUGGUGUUCGAG [Ex NG1 #96] (Eterna round: R96, puzzle: Exclusion NG 1)	37.7	26.8	37.6			
GCUUGUGGGCAAGGAUAUCCUACGCUGUUCUGGUUCGUGUCUGUCACAUGAGGAUCACCCAUGUGGGAGAAGGUGCCUUUGGUG [Design 63] (Eterna round: R96, puzzle: Exclusion NG 2)	13.7	12.7	16.2			
GUCAGCUCGUGAGGAUAUGCACAUGAGGAUCACCCAUGUAAGAUCAAGCUGCUUCGGCAGCAAGUGCAGAAGGCACGAGCUGAU [ENG2/9-A3] (Eterna round: R96, puzzle: Exclusion NG 2)	148	179	210			
GGAUCGAAUGUGAGGAUAUGCUGGUCCUUGGAUCAGCAGAAGGCACAUGAGGAUCACCCAUGUGAUACCGAUCC [Eli bmx4 4.70] (Eterna round: R97, puzzle: Brourd's mod of Exclusion 4)	255		381			
GCAGAAAGUGUAGGAUAUAGAAAUUAGCGGAAACGCAAUACAUGAGGAUCACCCAUGUUUCCUCACUAGAAGGGCAAAAGCUGC [EXNG2 V2 f] (Eterna round: R96, puzzle: Exclusion NG 2)		12.8				
GCAGCAUAGUGUUAUUACACAAUACAUGAGGAUCACCCAUGUGAGGAUAUGGACUGGAUUACAGUCCAGAAGGCACAAAGCUGC [Zipper Style 3] (Eterna round: R96, puzzle: Exclusion NG 3)	21.7	12.5	19.8			
GUUAGUUAAGGAUAUACAGGGAGCCGCGGCGUCUCGCCGCAACAUGAGGAUCACCCAUGUAGAAGGUGGCCAUU [JL ViennaUCT Enbibi mod 2] (puzzle: Exclusion 2)					101	
UAAAUGUGAGGAUAUCAGGUGUGCUAGCGUACUGGUACAUCUGAGAAGGCACAUGAGGAUCACCCAUGUUCCUU [Mat - Exclusion 4 - Mod of JL - D49] (puzzle: Exclusion 4)					16.7	
UUGUUAUAUGUAGGAUAUGCGUGUUGUUAUUAGGCAGAAGGACAUGAGGAUCACCCAUGUAUGUUGUUGUUAUAUAUUAUAUAU [Title] (Eterna round: R96, puzzle: Exclusion NG 1)	56.3	28.3	58.8			
AAUUAUUUUUGAGGAUAUGGUGGUGAAACACCACCAGAAGGCGAGAUAAACAUGAGGAUCACCCAUGUGAGCCUGAUGCUUAUG [Ex NG1 #49] (Eterna round: R96, puzzle: Exclusion NG 1)	29.2	12.6	17.2			
UUGAUGUGAGGAUAUAUAUGGUUGUUUUUUUAUUUUUUAUUACUUGAGGAUCACCCAAGUAGAAGGCGCUACGU [JR_Ex2_Sub068] (Eterna round: R97, puzzle: Exclusion 2)	25.5		29.5			
AAUUCACAUGAGGAUCACCCAUGUCAGGAUAUGGUUUCACGUUUUUCUUUGCUUGAGGCCAGAAGGGACAGCUA (puzzle: Exclusion 1)					54.2	
UUAGAUUAUUGAGGAUAUGGAUCUUAUUAUUAACCAGAAGGCAAACUCAACAUGAGGAUCACCCAUGUAUAAAGGGUAUUAGUU [JR_ExcNG1_Sub099] (Eterna round: R96, puzzle: Exclusion NG 1)		62.8				
CUGUUUUUCGCAGGAUAUGCUUCUCCUUUAUUAGCAGAAGGGCGUUAAACAUGAGGAUCACCCAUGUAUGGUAAUGACAUUUUC [JR_ExcNG1_Sub061] (Eterna round: R96, puzzle: Exclusion NG 1)	98.3	18.2	24.3			
AAAACGGUUCUCGUGAGGUACAUGAGGAUCACCCAUGUGAGUCAGGAUAUCCCGUCCAAGUGCGAGGAGAAGGGACGCACUUGG [Esesence] (Eterna round: R96, puzzle: Exclusion NG 3)	190	103	110			
AGAUGUAGAUACCGAUCCUACAUGAGGAUCACCCAUGUAGCUAGACGUGCACGCGUAGCUCGUCAGACUACCAGAAG [salish99_TOv1_r3_085] (Eterna round: R96, puzzle: Sensor v3, turn-off variant 1)	461	253	449			
UAACAAAUGGUCAGGAUAUCAUUCCCGGCCCAGAGUGAGAAGGGACAUGAGGAUCACCCAUGUGUGAUUCUCAU [jl-ex4-4.55 ViennaUCT mod] (Eterna round: R97, puzzle: Brourd's mod of Exclusion 4)	128		97.1			
AGUAACUAUCACGAAAGUGAUAGUUACAAAACAAGUGAAACAUGAGGAUCACCCAUGUCCUCAUUUGCUCGUCUUAU [Sensor 3 - 2] (puzzle: Sensor v3, turn-off variant 2)				118	257	189
UCUUUGUGAGGAUAUCAGUAGUAAAUAAAUAAAAUUACUACUGAGAAGGCACAUGAGGAUCACCCAUGUUCCUU [salish99_ex3_r3_091] (puzzle: Exclusion 4)					13.5	
GGCAGACAUGAGGAUCACCCAUGUCAGGAUAUGCGGCGAAGUACAGUUAGUGCAUUUGGUAGAAGGGACAAGGA [Eternabot (L1) Solution 100] (Eterna round: R97, puzzle: Exclusion 1)	29.8		32.5			

— the supplement of paper PMC9170038
